Read-outs that look alike come from different tables or passages of the source.
Assays:
cynoCSF1R ECD-Fc [1] = molecular target: T1, cynoCSF1R ECD-Fc (cynomolgus); assay: competition ELISA, blocking of human IL34 binding to cynoCSF1R ECD-Fc
T1 construct: also called cynomolgus CSF1R ECD

[2] = molecular target: T2, human CSF1R on CSF1R (SEQ ID NO: 2)-transfected CHO cells (human, UniProt P07333 20-972); assay: cell-based or functional assay
cynoCSF1R ECD-Fc [3] = molecular target: T1, cynoCSF1R ECD-Fc; assay: ELISA, plate coated with cynoCSF1R ECD-Fc
How it was run: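 Humanized or parental chimeric antibodies, serially diluted 0.5× from 2000 ng/ml, bound 90 min at RT to wells coated overnight with 2 μg/ml cyno CSF1R ECD-Fc lacking the leader. A450 after HRP anti-human kappa detection (60 min) and 30 min OPD development gave binding curves.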

[4] = molecular target: T2, human CSF1R on CSF1R (SEQ ID NO: …); assay: cell-based or functional assay; remark: listed apart in the source
hCSF1R ECD.506-Fc = molecular target: T3, hCSF1R ECD.506-Fc (human); assay: ELISA, plate coated with human CSF1R ECD-Fc
T3 construct: also called human CSF1R ECD-Fc fusion protein; human CSF1R ECD
T3 sequence (chain, as listed by the source limits assumed): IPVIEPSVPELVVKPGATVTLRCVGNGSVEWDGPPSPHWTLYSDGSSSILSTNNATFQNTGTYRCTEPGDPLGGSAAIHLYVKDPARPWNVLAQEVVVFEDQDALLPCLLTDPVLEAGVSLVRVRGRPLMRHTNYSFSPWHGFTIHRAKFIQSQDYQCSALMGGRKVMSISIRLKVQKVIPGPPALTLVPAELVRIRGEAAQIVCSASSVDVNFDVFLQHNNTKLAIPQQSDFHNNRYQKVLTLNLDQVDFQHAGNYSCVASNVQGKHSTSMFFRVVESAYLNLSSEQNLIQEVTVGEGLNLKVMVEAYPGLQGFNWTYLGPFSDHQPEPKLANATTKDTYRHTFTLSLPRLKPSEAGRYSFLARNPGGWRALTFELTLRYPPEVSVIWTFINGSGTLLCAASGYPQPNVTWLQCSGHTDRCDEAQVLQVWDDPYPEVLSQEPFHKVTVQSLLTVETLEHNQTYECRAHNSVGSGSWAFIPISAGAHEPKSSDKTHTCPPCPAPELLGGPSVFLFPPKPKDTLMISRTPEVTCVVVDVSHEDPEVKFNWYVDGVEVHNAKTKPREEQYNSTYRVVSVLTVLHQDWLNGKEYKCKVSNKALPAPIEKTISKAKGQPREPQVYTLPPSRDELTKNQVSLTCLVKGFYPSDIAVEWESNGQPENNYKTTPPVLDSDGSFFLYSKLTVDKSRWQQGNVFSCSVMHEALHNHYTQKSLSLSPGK
How it was run: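 Binding read as A450 after o-phenylenediamine development (30 min) of peroxidase-conjugated anti-human kappa light chain (60 min, RT). Antibodies, humanized or parental chimeric, were serially halved from 2000 ng/ml and incubated 90 min at RT on wells coated overnight with 1 μg/ml CSF1R ECD-Fc.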

cynoCSF1R ECD-Fc [5] = molecular target: T1, cynoCSF1R ECD-Fc; assay: competition ELISA, blocking of human CSF1 binding to cynoCSF1R ECD-Fc; blocking of human CSF1 binding to cynoCSF1R ECD
Protocol: The humanized antibodies, along with the parental chimeric antibodies (cAbs), were tested for their ability to block human CSF1 binding to human and cynomolgus CSF1R ECD, as follows.
Recombinant Human CSF1 (M-CSF; R&D Systems) was biotinylated using an NH₂-Biotin Labeling Kit (Dojindo Molecular Technologies). One hundred μl of 1 μg/ml biotinylated CSF1 in PBST/0.1% BSA was added to the wells of Reacti-Bind Streptavidin coated plates (Pierce) pre-blocked with SuperBlock blocking buffer (Pierce) according to the manufacturer's instructions. Fifty μl of 0.5× serial dilutions of the humanized antibody or parental chimeric antibody, beginning with 2000 ng/ml, was incubated with 50 ng/ml hCSF1R ECD.506-Fc (SEQ ID NO: 6; FivePrime Therapeutics) or 50 ng/ml cynoCSF1R ECD-Fc (FivePrime Therapeutics, SEQ ID NO: 8, but without the 19 amino acid leader sequence) in 100 μl PBST/0.1% BSA for 90 min at RT, after which the admix was transferred to one or more wells of a ligand-coated plate. After 90 min at RT, wells were washed with PBST, and a 1:5000 dilution of an Fc-fragment-specific peroxidase-conjugated goat anti-human IgG (Jackson Immuno Research) in PBST/0.1% BSA was added to each well. […] After incubation at RT for 30 min, A450 values of each well were read directly on a SpectraMaxPlus spectrophotometer with SoftMaxPro software (Molecular Devices).

mCSF1R ECD-Fc = molecular target: T4, mCSF1R ECD-Fc (mouse); assay: ELISA, plate coated with mCSF1R ECD-Fc, detection anti-human kappa-HRP, A450
T4 construct: also called mouse CSF1R ECD
T4 sequence (chain, as listed by the source limits assumed): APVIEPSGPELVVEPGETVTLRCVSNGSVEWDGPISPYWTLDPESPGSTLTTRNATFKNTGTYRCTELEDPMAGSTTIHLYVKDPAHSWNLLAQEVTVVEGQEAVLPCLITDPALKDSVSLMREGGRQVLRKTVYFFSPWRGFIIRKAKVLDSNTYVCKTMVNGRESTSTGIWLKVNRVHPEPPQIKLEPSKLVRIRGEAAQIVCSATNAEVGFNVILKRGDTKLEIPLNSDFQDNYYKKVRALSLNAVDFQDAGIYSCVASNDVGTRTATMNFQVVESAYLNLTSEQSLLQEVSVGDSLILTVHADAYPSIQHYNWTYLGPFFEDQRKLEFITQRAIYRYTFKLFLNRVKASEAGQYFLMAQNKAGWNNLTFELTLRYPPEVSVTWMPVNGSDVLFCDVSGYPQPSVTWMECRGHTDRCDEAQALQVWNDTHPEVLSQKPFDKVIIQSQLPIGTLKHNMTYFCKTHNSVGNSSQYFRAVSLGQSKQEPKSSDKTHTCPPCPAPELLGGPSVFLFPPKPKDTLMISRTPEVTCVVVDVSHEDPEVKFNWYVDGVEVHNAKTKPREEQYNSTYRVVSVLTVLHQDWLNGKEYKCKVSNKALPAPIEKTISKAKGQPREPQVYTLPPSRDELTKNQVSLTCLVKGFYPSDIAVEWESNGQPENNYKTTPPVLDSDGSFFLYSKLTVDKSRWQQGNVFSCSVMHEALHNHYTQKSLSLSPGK
How it was run: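 Humanized or parental chimeric antibodies, 0.5× serial dilutions from 2000 ng/ml, bound for 90 min at RT to wells coated overnight with 2 μg/ml recombinant mouse CSF1R ECD-Fc; blocked with Blocker-Blotto. Bound antibody detected with HRP anti-human kappa (60 min RT) and o-phenylenediamine substrate, 30 min, A450.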

cynoCSF1R ECD-Fc [6] = molecular target: T1, cynoCSF1R ECD-Fc; assay: competition ELISA, blocking of human CSF1 binding to cynoCSF1R ECD-Fc
How it was run: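 Antibodies in 0.5× serial dilutions from 2000 ng/ml were preincubated 90 min at RT with 50 ng/ml cynoCSF1R ECD-Fc (no leader sequence). The mix was then bound 90 min to plates coated with biotinylated human CSF1 (1 μg/ml). Bound receptor-Fc was detected with peroxidase anti-human Fc and OPD substrate, read at A450.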

[7] = molecular target: T2, human CSF1R on CSF1R (SEQ ID NO: …); assay: cell-based or functional assay; remark: listed apart in the source
[8] = molecular target: T2, human CSF1R on CSF1R (SEQ ID NO: …); assay: cell-based or functional assay; remark: listed apart in the source
hCSF1R ECD.506 = molecular target: T5, hCSF1R ECD.506 (human, UniProt P07333 20-506); assay: SPR Biacore T100, antibody captured on anti-human IgG, hCSF1R ECD.506 as analyte, 1:1 model
T5 construct: also called human CSF1R ECD
T5 sequence (P07333 20-506): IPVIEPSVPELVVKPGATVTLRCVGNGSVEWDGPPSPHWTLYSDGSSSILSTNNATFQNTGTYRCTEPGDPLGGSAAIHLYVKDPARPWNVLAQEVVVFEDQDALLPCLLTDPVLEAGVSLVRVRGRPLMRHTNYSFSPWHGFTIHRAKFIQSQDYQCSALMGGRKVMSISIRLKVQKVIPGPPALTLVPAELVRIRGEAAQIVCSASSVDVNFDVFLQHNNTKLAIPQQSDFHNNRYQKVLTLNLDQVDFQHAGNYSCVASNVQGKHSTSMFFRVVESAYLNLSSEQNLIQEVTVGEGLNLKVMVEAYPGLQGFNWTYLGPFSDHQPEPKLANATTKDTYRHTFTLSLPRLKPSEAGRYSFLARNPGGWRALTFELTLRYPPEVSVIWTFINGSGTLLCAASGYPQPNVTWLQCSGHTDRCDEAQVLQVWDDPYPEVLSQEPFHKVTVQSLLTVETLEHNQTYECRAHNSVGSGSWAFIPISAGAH
How it was run: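 Kinetic constants (ka, kd, KD) came from 1:1 model fitting of SPR data with human CSF1R ECD.506 flowed as analyte. Each antibody was captured via immobilized anti-human IgG at 150 RU, giving an Rmax of 100 RU.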

cynoCSF1R ECD-Fc [9] = molecular target: T1, cynoCSF1R ECD-Fc; assay: competition ELISA, blocking of human IL34 binding to cynoCSF1R ECD-Fc (curve-fit value far beyond the range tested); blocking of human IL34 binding to cynoCSF1R ECD
Protocol: Recombinant Human CSF1 (M-CSF; R&D Systems) was biotinylated using an NH₂-Biotin Labeling Kit (Dojindo Molecular Technologies). One hundred μl of 1 μg/ml biotinylated CSF1 in PBST/0.1% BSA was added to the wells of Reacti-Bind Streptavidin coated plates (Pierce) pre-blocked with SuperBlock blocking buffer (Pierce) according to the manufacturer's instructions. […] After incubation at RT for 30 min, A450 values of each well were read directly on a SpectraMaxPlus spectrophotometer with SoftMaxPro software (Molecular Devices).
The humanized antibodies were tested for their ability to block human IL34 binding to human CSF1R ECD. The blocking activity of each humanized antibody was determined as described above for blocking of CSF1, except recombinant human IL34 (FivePrime Therapeutics; SEQ ID NO: 68) was biotinylated using an NH2-Biotin Labeling Kit (Dojindo Molecular Technologies), and then 100 μl of 1 μg/ml biotinylated recombinant IL34 in PBST/0.1% BSA was added to the wells of Reacti-Bind Streptavidin coated plates (Pierce) pre-blocked with SuperBlock blocking buffer (Pierce) according to the manufacturer's instructions.

[10] = molecular target: T2, human CSF1R on CSF1R (SEQ ID NO: …); assay: cell-based or functional assay; remark: listed apart in the source
[11] = molecular target: T2, human CSF1R on CSF1R (SEQ ID NO: …); assay: cell-based or functional assay; remark: listed apart in the source
cynoCSF1R ECD-Fc [12] = molecular target: T1, cynoCSF1R ECD-Fc; assay: competition ELISA, blocking of human CSF1 binding to cynoCSF1R ECD-Fc (curve-fit value beyond the range tested)
Protocol: Recombinant Human CSF1 (M-CSF; R&D Systems) was biotinylated using an NH₂-Biotin Labeling Kit (Dojindo Molecular Technologies). One hundred μl of 1 μg/ml biotinylated CSF1 in PBST/0.1% BSA was added to the wells of Reacti-Bind Streptavidin coated plates (Pierce) pre-blocked with SuperBlock blocking buffer (Pierce) according to the manufacturer's instructions. Fifty μl of 0.5× serial dilutions of the humanized antibody or parental chimeric antibody, beginning with 2000 ng/ml, was incubated with 50 ng/ml hCSF1R ECD.506-Fc (SEQ ID NO: 6; FivePrime Therapeutics) or 50 ng/ml cynoCSF1R ECD-Fc (FivePrime Therapeutics, SEQ ID NO: 8, but without the 19 amino acid leader sequence) in 100 μl PBST/0.1% BSA for 90 min at RT, after which the admix was transferred to one or more wells of a ligand-coated plate. After 90 min at RT, wells were washed with PBST, and a 1:5000 dilution of an Fc-fragment-specific peroxidase-conjugated goat anti-human IgG (Jackson Immuno Research) in PBST/0.1% BSA was added to each well. After incubation at RT for 60 min, wells were washed with PBST/0.1% BSA, and o-phenylenediamine dihydrochloride peroxidase substrate (Sigma) was added to each well. After incubation at RT for 30 min, A450 values of each well were read directly on a SpectraMaxPlus spectrophotometer with SoftMaxPro software (Molecular Devices).

T2 sequence (P07333 20-972): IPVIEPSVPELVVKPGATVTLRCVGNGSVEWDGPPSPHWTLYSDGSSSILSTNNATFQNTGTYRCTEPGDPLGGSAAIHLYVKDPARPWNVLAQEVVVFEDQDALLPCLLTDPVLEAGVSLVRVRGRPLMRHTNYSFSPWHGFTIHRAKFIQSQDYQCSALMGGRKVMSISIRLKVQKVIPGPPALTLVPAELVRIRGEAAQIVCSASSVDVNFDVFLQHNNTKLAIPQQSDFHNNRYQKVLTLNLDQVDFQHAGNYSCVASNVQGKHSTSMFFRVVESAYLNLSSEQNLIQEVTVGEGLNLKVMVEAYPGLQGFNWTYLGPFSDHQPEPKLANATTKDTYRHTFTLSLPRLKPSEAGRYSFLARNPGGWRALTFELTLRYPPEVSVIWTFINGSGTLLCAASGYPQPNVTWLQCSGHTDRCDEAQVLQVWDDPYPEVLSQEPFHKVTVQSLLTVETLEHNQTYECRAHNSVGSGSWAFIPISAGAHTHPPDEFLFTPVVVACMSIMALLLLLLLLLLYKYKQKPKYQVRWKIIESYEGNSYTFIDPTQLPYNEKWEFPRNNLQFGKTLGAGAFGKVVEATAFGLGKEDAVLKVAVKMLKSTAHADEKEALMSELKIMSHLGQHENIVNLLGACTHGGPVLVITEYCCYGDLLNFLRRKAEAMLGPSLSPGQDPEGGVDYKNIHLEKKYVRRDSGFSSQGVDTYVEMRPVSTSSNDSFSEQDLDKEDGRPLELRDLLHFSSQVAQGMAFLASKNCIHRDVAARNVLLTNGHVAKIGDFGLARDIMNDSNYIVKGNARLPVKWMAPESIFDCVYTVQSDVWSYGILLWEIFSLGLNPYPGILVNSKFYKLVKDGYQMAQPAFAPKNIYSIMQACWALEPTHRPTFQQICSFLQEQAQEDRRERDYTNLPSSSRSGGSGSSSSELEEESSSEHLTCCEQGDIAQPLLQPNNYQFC
T1 sequence (chain, as listed by the source): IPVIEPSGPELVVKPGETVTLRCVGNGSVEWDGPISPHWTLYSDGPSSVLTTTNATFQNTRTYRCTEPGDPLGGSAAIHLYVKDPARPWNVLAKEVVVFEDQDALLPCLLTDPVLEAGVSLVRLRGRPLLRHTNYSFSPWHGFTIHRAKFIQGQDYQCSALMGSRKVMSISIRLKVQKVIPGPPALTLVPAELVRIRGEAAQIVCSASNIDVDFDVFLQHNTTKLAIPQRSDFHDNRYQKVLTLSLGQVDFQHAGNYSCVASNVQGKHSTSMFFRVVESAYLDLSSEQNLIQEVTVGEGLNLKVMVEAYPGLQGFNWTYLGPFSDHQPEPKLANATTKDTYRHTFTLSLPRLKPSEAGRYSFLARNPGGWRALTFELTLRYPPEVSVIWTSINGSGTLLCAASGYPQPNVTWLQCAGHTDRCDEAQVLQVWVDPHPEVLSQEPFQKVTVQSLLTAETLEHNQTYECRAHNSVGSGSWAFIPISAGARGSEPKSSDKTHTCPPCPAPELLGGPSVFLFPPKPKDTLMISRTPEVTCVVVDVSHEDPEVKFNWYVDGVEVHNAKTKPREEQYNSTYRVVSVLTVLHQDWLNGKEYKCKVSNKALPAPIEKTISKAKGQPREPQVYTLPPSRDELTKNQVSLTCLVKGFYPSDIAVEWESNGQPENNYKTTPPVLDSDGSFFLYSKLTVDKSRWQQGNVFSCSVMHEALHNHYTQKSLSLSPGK

B1: cAb 0301 (antibody, human IgG4 S228P, kappa, V domains shown)
VH: EVQLQQSGPELVRPGASVKMSCKASGYTFTDNYMIWVKQSHGKSLEWIGDINPYNGGTTFNQKFKGKATLTVEKSSSTAYMQLNSLTSEDSAVYYCARESPYFSNLYVMDYWGQGTSVTVSS
VL: NIVLTQSPASLAVSLGQRATISCKASQSVDYDGDNYMNWYQQKPGQPPKLLIYAASNLESGIPARFSGSGSGTDFTLNIHPVEEEDAATYYCHLSNEDLSTFGGGTKLEIKR
- IC50 (cynoCSF1R ECD-Fc [1]): 0.0295 µg/mL
- IC50 (read off the curve), CSF1-induced CSF1R phosphorylation [2]: ~300 ng/mL
- EC50 (cynoCSF1R ECD-Fc [3]): 0.0152 µg/mL
- IC50, inhibition of CSF1-induced CSF1R phosphorylation (head prints 'Human CSF1/Human CSF1R ECD IC50') [4]: 307 ng/mL
- IC50, inhibition of IL34-induced CSF1R phosphorylation (head prints 'Human IL34/Human CSF1R ECD IC50') [4]: 312 ng/mL
- EC50 (hCSF1R ECD.506-Fc): 0.0114 µg/mL
- IC50 (cynoCSF1R ECD-Fc [5]): 0.022 µg/mL
- binding result (mCSF1R ECD-Fc): no binding (tested: 2000 ng/ml)

B2: h0311-L0H1 (antibody, human IgG4 S228P, kappa, V domains shown)
VH: QVQLVQSGAEVKKPGSSVKVSCKASGYIFTDYNMHWVRQAPGQGLEWMGEINPNNGVVVYNQKFKGRVTITVDKSTSTAYMELSSLRSEDTAVYYCTRALYHSNFGWYFDSWGQGTLVTVSS
VL: EIVLTQSPATLSLSPGERATLSCKASQSVDYDGDSHMNWYQQKPGQAPRLLIYTASNLESGIPARFSGSGSGTDFTLTISSLEPEDFAVYYCQQGNEDPWTFGQGTKVEIKR
notes: also called Ab13; huAb 0311-L0H1
- IC50 (cynoCSF1R ECD-Fc [1]): 0.0504 µg/mL
- EC50 (cynoCSF1R ECD-Fc [3]): 0.0216 µg/mL
- IC50, inhibition of CSF1-induced CSF1R phosphorylation (head prints 'Human CSF1/Human CSF1R ECD IC50') [4]: 291 ng/mL
- IC50, inhibition of IL34-induced CSF1R phosphorylation (head prints 'Human IL34/Human CSF1R ECD IC50') [4]: 343 ng/mL
- IC50 (cynoCSF1R ECD-Fc [6]): 0.0325 µg/mL
- EC50 (hCSF1R ECD.506-Fc): 0.0131 µg/mL
- CSF1 blocking IC50 (ligand-induced CSF1R phosphorylation in CHO cells) [7]: 127 ng/mL
- IL34 blocking IC50 (ligand-induced CSF1R phosphorylation in CHO cells) [7]: 338 ng/mL
- IC50 (read off the curve), IL34-induced CSF1R phosphorylation [8]: ~400 ng/mL
- binding result (mCSF1R ECD-Fc): no binding (tested: 2000 ng/ml)
- Kd (hCSF1R ECD.506): 0.44 nM
- koff (hCSF1R ECD.506): 0.00054 s⁻¹
- kon (hCSF1R ECD.506): 1.22e+06 M⁻¹ s⁻¹

B3: h0302-L0H1 (antibody, human IgG4 S228P, kappa, V domains shown)
VH: QVQLVQSGAEVKKPGSSVKVSCKASGYTFSDFNIHWVRQAPGQGLEWMGYINPYTDVTVYNEKFKGRVTITSDKSTSTAYMELSSLRSEDTAVYYCASYFDGTFDYALDYWGQGTLVTVSS
VL: EIVLTQSPATLSLSPGERATLSCRASESVDNYGLSFMNWYQQKPGQAPRLLIYTASNLESGIPARFSGSGSGTDFTLTISSLEPEDFAVYYCQQSKELPWTFGQGTKVEIKR
notes: also called Ab7; huAb 0302-L0H1
- IC50 (cynoCSF1R ECD-Fc [9]): > 2 µg/mL
- EC50 (cynoCSF1R ECD-Fc [3]): 0.467 µg/mL
- IC50, inhibition of CSF1-induced CSF1R phosphorylation (head prints 'Human CSF1/Human CSF1R ECD IC50') [4]: 928 ng/mL
- IC50, inhibition of IL34-induced CSF1R phosphorylation (head prints 'Human IL34/Human CSF1R ECD IC50') [4]: 615 ng/mL
- IC50 (cynoCSF1R ECD-Fc [6]): 0.0155 µg/mL
- IC50 (read off the curve), CSF1-induced CSF1R phosphorylation [10]: ~1000 ng/mL
- EC50 (hCSF1R ECD.506-Fc): 0.0146 µg/mL
- IC50 (read off the curve), IL34-induced CSF1R phosphorylation [11]: ~600 ng/mL
- binding result (mCSF1R ECD-Fc): no binding (tested: 2000 ng/ml)
- Kd (hCSF1R ECD.506): 1.04 nM
- koff (hCSF1R ECD.506): 0.00369 s⁻¹
- kon (hCSF1R ECD.506): 3.54e+06 M⁻¹ s⁻¹

B4: h0302-L2H1 (antibody, human IgG4 S228P, kappa, V domains shown)
VH: QVQLVQSGAEVKKPGSSVKVSCKASGYTFSDFNIHWVRQAPGQGLEWMGYINPYTDVTVYNEKFKGRVTITSDKSTSTAYMELSSLRSEDTAVYYCASYFDGTFDYALDYWGQGTLVTVSS
VL: EIVVTQSPATLSLSPGERATLSCRASESVDNYGLSFMNWFQQKPGQAPRLLIYTASNLESGIPARFSGSGSRTDFTLTISSLEPEDFAVYYCQQSKELPWTFGQGTKVEIKR
notes: also called Ab9; huAb 0302-L2H1
- IC50 (cynoCSF1R ECD-Fc [1]): 0.509 µg/mL
- EC50 (cynoCSF1R ECD-Fc [3]): 0.066 µg/mL
- IC50, inhibition of CSF1-induced CSF1R phosphorylation (head prints 'Human CSF1/Human CSF1R ECD IC50') [4]: 384 ng/mL
- IC50, inhibition of IL34-induced CSF1R phosphorylation (head prints 'Human IL34/Human CSF1R ECD IC50') [4]: 303 ng/mL
- EC50 (hCSF1R ECD.506-Fc): 0.00774 µg/mL
- IC50 (cynoCSF1R ECD-Fc [12]): 89.8 µg/mL
- binding result (mCSF1R ECD-Fc): no binding (tested: 2000 ng/ml)
- Kd (hCSF1R ECD.506): 0.57 nM
- koff (hCSF1R ECD.506): 0.000914 s⁻¹
- kon (hCSF1R ECD.506): 1.6e+06 M⁻¹ s⁻¹

Reference: patent publication US20220153851A1 (Five Prime, published 2022)
